In patent US20030162190:

Legend:
NF-kB p50 homodimer = NF-kB p50 homodimer (UniProt P19838); experiment: EMSA; details: only 'similar data was collected for p50'; method inferred
[1] = molecular target: NF-kB p65 (RelA) homodimer (UniProt Q04206); experiment: EMSA; details: 1:1 stoichiometry; method inferred
NF-kB p65 (RelA) homodimer, sequence (Q04206 whole entry): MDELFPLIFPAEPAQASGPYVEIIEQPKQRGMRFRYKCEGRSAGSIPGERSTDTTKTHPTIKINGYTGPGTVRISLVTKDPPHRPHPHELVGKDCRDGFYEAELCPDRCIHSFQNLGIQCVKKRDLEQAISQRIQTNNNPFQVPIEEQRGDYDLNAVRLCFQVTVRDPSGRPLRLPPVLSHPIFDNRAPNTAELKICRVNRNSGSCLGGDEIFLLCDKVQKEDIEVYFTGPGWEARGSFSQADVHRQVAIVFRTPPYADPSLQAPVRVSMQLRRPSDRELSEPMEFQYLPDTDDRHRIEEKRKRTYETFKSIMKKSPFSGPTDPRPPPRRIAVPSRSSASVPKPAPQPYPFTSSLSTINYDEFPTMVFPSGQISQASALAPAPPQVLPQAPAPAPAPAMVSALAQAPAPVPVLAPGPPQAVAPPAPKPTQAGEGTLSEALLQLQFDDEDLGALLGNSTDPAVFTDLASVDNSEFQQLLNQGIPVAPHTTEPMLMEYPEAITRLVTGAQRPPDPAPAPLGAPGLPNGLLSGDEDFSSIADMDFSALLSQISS

NF-kB p50 homodimer, sequence (P19838 1-433): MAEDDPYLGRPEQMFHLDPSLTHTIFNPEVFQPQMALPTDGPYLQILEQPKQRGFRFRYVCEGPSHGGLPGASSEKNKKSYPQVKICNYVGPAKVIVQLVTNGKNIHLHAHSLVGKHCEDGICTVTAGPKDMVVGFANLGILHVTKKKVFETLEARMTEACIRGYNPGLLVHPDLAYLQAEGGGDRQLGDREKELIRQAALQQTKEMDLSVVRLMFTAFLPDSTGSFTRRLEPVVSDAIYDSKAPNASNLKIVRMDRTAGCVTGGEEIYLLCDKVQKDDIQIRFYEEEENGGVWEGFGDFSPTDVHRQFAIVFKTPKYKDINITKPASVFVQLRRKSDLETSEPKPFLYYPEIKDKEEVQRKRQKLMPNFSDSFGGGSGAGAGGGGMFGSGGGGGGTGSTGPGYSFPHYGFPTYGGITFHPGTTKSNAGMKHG

IgkB 22-mer promoter site
Kd (NF-kB p50 homodimer): 4 nM
Kd [1]: 4 nM
